# According to US20230331811A1, “IMMOBILIZED SELF-ASSEMBLED PROTEIN MULTIMERS” (CCOA THERAPEUTICS INC., priority 2020, published 2023):
# How the values were obtained:
# [1] = biological target: Recombinant human ectodomain αIIbβ3, inactive (before activation) (human) (UniProt P08514); assay: flow cytometry, 50 nM Alexa488-fibrinogen on inactive αIIbβ3 beads
# [2] = biological target: Recombinant human ectodomain αIIbβ3, inactive (before activation) (human) (UniProt P08514); assay: flow cytometry, 50 nM FITC-PAC 1 on inactive αIIbβ3 beads
# [3] = biological target: Recombinant human ectodomain αIIbβ3, activated (high-affinity ligand binding conformation) (human) (UniProt P08514); assay: flow cytometry, 50 nM FITC-PAC 1 on activated αIIbβ3 beads
# Sequence of Recombinant human ectodomain αIIbβ3, activated (high-affinity ligand binding conformation) (human) (P08514 other isoform, or with tags, fused parts or gaps limits assumed, chain 1 of 2): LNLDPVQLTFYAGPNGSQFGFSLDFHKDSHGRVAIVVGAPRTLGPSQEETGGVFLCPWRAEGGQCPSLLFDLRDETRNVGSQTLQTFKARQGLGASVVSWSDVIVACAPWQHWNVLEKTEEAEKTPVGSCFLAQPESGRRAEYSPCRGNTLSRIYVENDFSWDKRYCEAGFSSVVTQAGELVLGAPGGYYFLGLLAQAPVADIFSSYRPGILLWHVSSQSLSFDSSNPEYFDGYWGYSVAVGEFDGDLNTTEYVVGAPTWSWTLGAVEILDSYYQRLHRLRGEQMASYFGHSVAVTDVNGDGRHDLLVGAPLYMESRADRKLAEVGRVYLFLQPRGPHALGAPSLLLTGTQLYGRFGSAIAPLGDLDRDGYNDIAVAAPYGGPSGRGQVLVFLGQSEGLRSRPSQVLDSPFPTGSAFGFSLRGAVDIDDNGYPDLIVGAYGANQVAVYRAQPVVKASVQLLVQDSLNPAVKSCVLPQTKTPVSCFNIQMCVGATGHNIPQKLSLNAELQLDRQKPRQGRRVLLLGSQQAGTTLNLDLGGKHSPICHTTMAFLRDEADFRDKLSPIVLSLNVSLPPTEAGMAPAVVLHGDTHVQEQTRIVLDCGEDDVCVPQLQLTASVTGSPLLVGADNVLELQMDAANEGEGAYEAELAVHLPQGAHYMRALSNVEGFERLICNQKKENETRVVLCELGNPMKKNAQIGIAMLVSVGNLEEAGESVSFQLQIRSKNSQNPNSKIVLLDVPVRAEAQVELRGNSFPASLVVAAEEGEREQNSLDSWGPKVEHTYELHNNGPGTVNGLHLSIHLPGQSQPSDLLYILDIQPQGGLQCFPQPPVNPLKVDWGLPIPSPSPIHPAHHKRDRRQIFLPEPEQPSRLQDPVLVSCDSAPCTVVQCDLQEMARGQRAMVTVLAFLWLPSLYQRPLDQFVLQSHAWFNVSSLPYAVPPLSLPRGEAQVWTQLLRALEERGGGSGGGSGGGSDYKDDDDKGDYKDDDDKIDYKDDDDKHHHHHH
# Sequence of Recombinant human ectodomain αIIbβ3, activated (high-affinity ligand binding conformation) (human) (chain, as listed by the source limits assumed, chain 2 of 2): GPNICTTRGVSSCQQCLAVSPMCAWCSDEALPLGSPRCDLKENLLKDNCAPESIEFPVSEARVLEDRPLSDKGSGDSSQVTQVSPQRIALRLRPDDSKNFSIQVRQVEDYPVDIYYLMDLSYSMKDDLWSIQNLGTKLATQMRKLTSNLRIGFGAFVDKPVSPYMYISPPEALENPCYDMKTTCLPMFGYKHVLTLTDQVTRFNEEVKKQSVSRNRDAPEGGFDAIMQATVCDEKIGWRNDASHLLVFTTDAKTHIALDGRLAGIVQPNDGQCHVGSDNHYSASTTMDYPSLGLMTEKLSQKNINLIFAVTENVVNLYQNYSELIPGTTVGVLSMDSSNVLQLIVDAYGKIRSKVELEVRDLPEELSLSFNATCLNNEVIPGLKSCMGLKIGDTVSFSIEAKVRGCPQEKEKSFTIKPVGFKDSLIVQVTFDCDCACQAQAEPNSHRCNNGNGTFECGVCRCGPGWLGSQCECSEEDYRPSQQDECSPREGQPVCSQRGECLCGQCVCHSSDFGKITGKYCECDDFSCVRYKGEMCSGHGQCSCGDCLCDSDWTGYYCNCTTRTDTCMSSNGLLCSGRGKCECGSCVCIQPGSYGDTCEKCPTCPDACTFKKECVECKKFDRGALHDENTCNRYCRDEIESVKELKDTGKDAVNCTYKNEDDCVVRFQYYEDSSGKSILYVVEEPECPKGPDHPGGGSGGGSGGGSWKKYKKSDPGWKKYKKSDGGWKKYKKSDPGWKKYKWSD
# Sequence of Recombinant human ectodomain αIIbβ3, inactive (before activation) (human) (P08514 other isoform, or with tags, fused parts or gaps limits assumed, chain 1 of 2): as the sequence (P08514 other isoform, or with tags, fused parts or gaps limits assumed, chain 1 of 2) above
# Sequence of Recombinant human ectodomain αIIbβ3, inactive (before activation) (human) (chain, as listed by the source limits assumed, chain 2 of 2): as the sequence (chain, as listed by the source limits assumed, chain 2 of 2) above
substance,measurement,setting,value
Fibrinogen (from UniProt P02671 20-644; P02675 31-491; P02679 27-437) (ligand),Mean Fluorescence Intensity (MFI),[1],52.7 MFI
PAC-1 (antibody specific for the active upright conformation of αIIbβ3),Mean Fluorescence Intensity (MFI),[2],212 MFI
same,Mean Fluorescence Intensity (MFI),[3],942 MFI
